Data as given in patent US20260049138A1 (Chugai, published 2026).

T1: human CD154 (human, UniProt P29965 113-261, limits assumed, biotin-labeled)
T1 construct: also called biotin-labeled human CD154; biotinylated human CD154
T1 sequence (looked up): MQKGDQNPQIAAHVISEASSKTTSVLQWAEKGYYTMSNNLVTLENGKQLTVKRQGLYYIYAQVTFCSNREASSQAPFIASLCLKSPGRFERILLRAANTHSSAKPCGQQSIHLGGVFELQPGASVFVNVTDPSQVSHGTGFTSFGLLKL


biological target: CD3ε homodimer protein (human, UniProt P07766 23-126, limits assumed); test: SPR Biacore T200, CD3e homodimer on chip
Sequence (P07766 23-126 limits assumed): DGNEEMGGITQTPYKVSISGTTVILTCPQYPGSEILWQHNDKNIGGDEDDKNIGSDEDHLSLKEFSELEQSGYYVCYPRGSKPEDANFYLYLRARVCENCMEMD
Description: An appropriate amount of CD3ε homodimer protein was immobilized onto Sensor chip CM4 (GE Healthcare Japan Corp.) by the amine coupling method. Then, the antibody having an appropriate concentration was injected thereto as an analyte and allowed to interact with the CD3ε homodimer protein on the sensor chip. Then, the sensor chip was regenerated by the injection of 10 mmol/L glycine-HCl (pH 1.5). The assay was conducted at 25° C., and HBS-EP+ (GE Healthcare Japan Corp.) was used as a running buffer. […] Each parameter was calculated using Biacore T200 Evaluation Software (GE Healthcare Japan Corp.).

Binder	KD ratio (KD of CE115HA000/KD of altered form)
CE115HA000 D101K one-arm antibody (antibody, human IgG1, kappa, L234A L235A, N297A, name in Kabat numbering) heavy: QVQLVESGGGVVQPGRSLRLSCAASGFTFSNAWMHWVRQAPGKGLEWVAQIKAKSNNYATYYAESVKGRFTISRDDSKNSLYLQMNSLKTEDTAVYYCRYVHYGAYYGVKAWGQGTTVTVSSASTKGPSVFPLAPSSKSTSGGTAALGCLVKDYFPEPVTVSWNSGALTSGVHTFPAVLQSSGLYSLSSVVTVPSSSLGTQTYICNVNHKPSNTKVDKKVEPKSCDKTHTCPPCPAPEAAGGPSVFLFPPKPKDTLMISRTPEVTCVVVDVSHEDPEVKFNWYVDGVEVHNAKTKPREEQYASTYRVVSVLTVLHQDWLNGKEYKCKVSNKALPAPIEKTISKAKGQPREPQVYTLPPSRCELTKNQVSLSCAVKGFYPSDIAVEWESNGQPENNYKTTPPVLDSDGSFFLVSKLTVDKSRWQQGNVFSCSVMHEALHNHYTQKSLSLSPDYKDDDDK EPKSSDKTHTCPPCPAPELLGGPSVFLFPPKPKDTLMISRTPEVTCVVVDVSHEDPEVKFNWYVDGVEVHNAKTKPREEQYNSTYRVVSVLTVLHQDWLNGKEYKCKVSNKALPAPIEKTISKAKGQPREPQVCTLPPSRDELTKNQVSLWCLVKGFYPSDIAVEWESNGQPENNYKTTPPVLDSDGSFFLYSKLTVDKSRWQQGNVFSCSVMHEALHNRYTQKSLSLSP light: DIVMTQSPLSLPVTPGEPASISCRSSQSLVHSNRNTYLHWYQQKPGQAPRLLIYKVSNRFSGVPDRFSGSGSGTDFTLKISRVEAEDVGVYYCGQGTQVPYTFGQGTKLEIKRTVAAPSVFIFPPSDEQLKSGTASVVCLLNNFYPREAKVQWKVDNALQSGNSQESVTEQDSKDSTYSLSSTLTLSKADYEKHKVYACEVTHQGLSSPVTKSFNRGEC	4.32
CE115HA000 D101R one-arm antibody (antibody, human IgG1, kappa, L234A L235A, N297A, name in Kabat numbering) heavy: QVQLVESGGGVVQPGRSLRLSCAASGFTFSNAWMHWVRQAPGKGLEWVAQIKAKSNNYATYYAESVKGRFTISRDDSKNSLYLQMNSLKTEDTAVYYCRYVHYGAYYGVRAWGQGTTVTVSSASTKGPSVFPLAPSSKSTSGGTAALGCLVKDYFPEPVTVSWNSGALTSGVHTFPAVLQSSGLYSLSSVVTVPSSSLGTQTYICNVNHKPSNTKVDKKVEPKSCDKTHTCPPCPAPEAAGGPSVFLFPPKPKDTLMISRTPEVTCVVVDVSHEDPEVKFNWYVDGVEVHNAKTKPREEQYASTYRVVSVLTVLHQDWLNGKEYKCKVSNKALPAPIEKTISKAKGQPREPQVYTLPPSRCELTKNQVSLSCAVKGFYPSDIAVEWESNGQPENNYKTTPPVLDSDGSFFLVSKLTVDKSRWQQGNVFSCSVMHEALHNHYTQKSLSLSPDYKDDDDK EPKSSDKTHTCPPCPAPELLGGPSVFLFPPKPKDTLMISRTPEVTCVVVDVSHEDPEVKFNWYVDGVEVHNAKTKPREEQYNSTYRVVSVLTVLHQDWLNGKEYKCKVSNKALPAPIEKTISKAKGQPREPQVCTLPPSRDELTKNQVSLWCLVKGFYPSDIAVEWESNGQPENNYKTTPPVLDSDGSFFLYSKLTVDKSRWQQGNVFSCSVMHEALHNRYTQKSLSLSP light: DIVMTQSPLSLPVTPGEPASISCRSSQSLVHSNRNTYLHWYQQKPGQAPRLLIYKVSNRFSGVPDRFSGSGSGTDFTLKISRVEAEDVGVYYCGQGTQVPYTFGQGTKLEIKRTVAAPSVFIFPPSDEQLKSGTASVVCLLNNFYPREAKVQWKVDNALQSGNSQESVTEQDSKDSTYSLSSTLTLSKADYEKHKVYACEVTHQGLSSPVTKSFNRGEC	5.55
CE115HA000 A52aE one-arm antibody (antibody, human IgG1, kappa, L234A L235A, N297A, name in Kabat numbering) heavy: QVQLVESGGGVVQPGRSLRLSCAASGFTFSNAWMHWVRQAPGKGLEWVAQIKEKSNNYATYYAESVKGRFTISRDDSKNSLYLQMNSLKTEDTAVYYCRYVHYGAYYGVDAWGQGTTVTVSSASTKGPSVFPLAPSSKSTSGGTAALGCLVKDYFPEPVTVSWNSGALTSGVHTFPAVLQSSGLYSLSSVVTVPSSSLGTQTYICNVNHKPSNTKVDKKVEPKSCDKTHTCPPCPAPEAAGGPSVFLFPPKPKDTLMISRTPEVTCVVVDVSHEDPEVKFNWYVDGVEVHNAKTKPREEQYASTYRVVSVLTVLHQDWLNGKEYKCKVSNKALPAPIEKTISKAKGQPREPQVYTLPPSRCELTKNQVSLSCAVKGFYPSDIAVEWESNGQPENNYKTTPPVLDSDGSFFLVSKLTVDKSRWQQGNVFSCSVMHEALHNHYTQKSLSLSPDYKDDDDK EPKSSDKTHTCPPCPAPELLGGPSVFLFPPKPKDTLMISRTPEVTCVVVDVSHEDPEVKFNWYVDGVEVHNAKTKPREEQYNSTYRVVSVLTVLHQDWLNGKEYKCKVSNKALPAPIEKTISKAKGQPREPQVCTLPPSRDELTKNQVSLWCLVKGFYPSDIAVEWESNGQPENNYKTTPPVLDSDGSFFLYSKLTVDKSRWQQGNVFSCSVMHEALHNRYTQKSLSLSP light: DIVMTQSPLSLPVTPGEPASISCRSSQSLVHSNRNTYLHWYQQKPGQAPRLLIYKVSNRFSGVPDRFSGSGSGTDFTLKISRVEAEDVGVYYCGQGTQVPYTFGQGTKLEIKRTVAAPSVFIFPPSDEQLKSGTASVVCLLNNFYPREAKVQWKVDNALQSGNSQESVTEQDSKDSTYSLSSTLTLSKADYEKHKVYACEVTHQGLSSPVTKSFNRGEC	0.88

biological target: T1, human CD154; test: ECL competition, CD3ε[+]: CD3ε homodimer added as competitor [1]
Description: Next, each obtained IgG was evaluated for its binding to CD3 and human CD154 at the same time by the competition method (electrochemiluminescence method (ECL method)).
A TBST solution containing 0.5% BSA (referred to as a blocking solution; the TBST solution was TBS (manufactured by Takara Bio Inc.) supplemented with 0.1% Tween 20) was added at 150 μL/well to streptavidin plate (MSD K.K.), and the plate was incubated at room temperature for 1 hour or longer. After removal of the blocking solution, each well was washed three times with 250 μL of a TBST solution. The antibody-antigen complex solution was added thereto at 50 μL/well, and the plate was incubated at room temperature for 1 hour so that the biotinylated antigen-antibody-detection sulfo-tag antibody complex solution bound via the biotinylated antigen to the streptavidin plate. After removal of the antibody-antigen complex solution, each well was washed three times with a TBST solution, and a solution of 4×READ buffer (MSD K.K.) diluted 2-fold with water was added thereto at 150 μL/well, followed by the detection of the luminescence signal of the sulfo-tag using Sector Imager 2400 (MSD K.K.).

Binder	relative ECL reaction (to no antigen coating)
154R3F02#2 one-arm antibody (antibody, human IgG1, kappa, L234A L235A, N297A, As m48) heavy: QVQLVESGGGLVQPGRSLRLSCAASGFTFSNAWMHWVRQAPGKGLEWVAQIKDRASGYNNYYAESVKGRFTISRDDSKNSIYLQMNSLKTEDTAVYYCRYVHYAQSVSAFFQYGVDAWGQGTTVTVSSASTKGPSVFPLAPSSKSTSGGTAALGCLVKDYFPEPVTVSWNSGALTSGVHTFPAVLQSSGLYSLSSVVTVPSSSLGTQTYICNVNHKPSNTKVDKKVEPKSCDKTHTCPPCPAPEAAGGPSVFLFPPKPKDTLMISRTPEVTCVVVDVSHEDPEVKFNWYVDGVEVHNAKTKPREEQYASTYRVVSVLTVLHQDWLNGKEYKCKVSNKALPAPIEKTISKAKGQPREPQVYTLPPSRCELTKNQVSLSCAVKGFYPSDIAVEWESNGQPENNYKTTPPVLDSDGSFFLVSKLTVDKSRWQQGNVFSCSVMHEALHNHYTQKSLSLSPDYKDDDDK EPKSSDKTHTCPPCPAPELLGGPSVFLFPPKPKDTLMISRTPEVTCVVVDVSHEDPEVKFNWYVDGVEVHNAKTKPREEQYNSTYRVVSVLTVLHQDWLNGKEYKCKVSNKALPAPIEKTISKAKGQPREPQVCTLPPSRDELTKNQVSLWCLVKGFYPSDIAVEWESNGQPENNYKTTPPVLDSDGSFFLYSKLTVDKSRWQQGNVFSCSVMHEALHNRYTQKSLSLSP light: DIVMTQSPLSLPVTPGEPASISCRSSQSLVHSNRNTYLHWYQQKPGQAPRLLIYKVSNRFSGVPDRFSGSGSGTDFTLKISRVEAEDVGVYYCGQGTQVPYTFGQGTKLEIKRTVAAPSVFIFPPSDEQLKSGTASVVCLLNNFYPREAKVQWKVDNALQSGNSQESVTEQDSKDSTYSLSSTLTLSKADYEKHKVYACEVTHQGLSSPVTKSFNRGEC	16
154R4B03#4 one-arm antibody (antibody, human IgG1, kappa, L234A L235A, N297A, As m48) heavy: QVQLVESGGGLVQPGRSLRLSCAASGFTFSNAWMHWVRQAPGKGLEWVAQIKDKQSQYANYYAPSVKGRFTISRDDSKSSIYLQMNSLKTEDTAVYYCRYVHYQSTSYSFYQGGVDAWGQGTTVTVSSASTKGPSVFPLAPSSKSTSGGTAALGCLVKDYFPEPVTVSWNSGALTSGVHTFPAVLQSSGLYSLSSVVTVPSSSLGTQTYICNVNHKPSNTKVDKKVEPKSCDKTHTCPPCPAPEAAGGPSVFLFPPKPKDTLMISRTPEVTCVVVDVSHEDPEVKFNWYVDGVEVHNAKTKPREEQYASTYRVVSVLTVLHQDWLNGKEYKCKVSNKALPAPIEKTISKAKGQPREPQVYTLPPSRCELTKNQVSLSCAVKGFYPSDIAVEWESNGQPENNYKTTPPVLDSDGSFFLVSKLTVDKSRWQQGNVFSCSVMHEALHNHYTQKSLSLSPDYKDDDDK EPKSSDKTHTCPPCPAPELLGGPSVFLFPPKPKDTLMISRTPEVTCVVVDVSHEDPEVKFNWYVDGVEVHNAKTKPREEQYNSTYRVVSVLTVLHQDWLNGKEYKCKVSNKALPAPIEKTISKAKGQPREPQVCTLPPSRDELTKNQVSLWCLVKGFYPSDIAVEWESNGQPENNYKTTPPVLDSDGSFFLYSKLTVDKSRWQQGNVFSCSVMHEALHNRYTQKSLSLSP light: DIVMTQSPLSLPVTPGEPASISCRSSQSLVHSNRNTYLHWYQQKPGQAPRLLIYKVSNRFSGVPDRFSGSGSGTDFTLKISRVEAEDVGVYYCGQGTQVPYTFGQGTKLEIKRTVAAPSVFIFPPSDEQLKSGTASVVCLLNNFYPREAKVQWKVDNALQSGNSQESVTEQDSKDSTYSLSSTLTLSKADYEKHKVYACEVTHQGLSSPVTKSFNRGEC	20
154R4B03#1 one-arm antibody (antibody, human IgG1, kappa, L234A L235A, N297A, As m48) heavy: QVQLVESGGGLVQPGRSLRLSCAASGFTFSNAWMHWVRQAPGKGLEWVAQIKDKQSQYANYYAPSVKGRFTISRDDSKNSIYLQMNSLKTEDTAVYYCRYVHYQSTSYSFYQGGVDAWGQGTTVTVSSASTKGPSVFPLAPSSKSTSGGTAALGCLVKDYFPEPVTVSWNSGALTSGVHTFPAVLQSSGLYSLSSVVTVPSSSLGTQTYICNVNHKPSNTKVDKKVEPKSCDKTHTCPPCPAPEAAGGPSVFLFPPKPKDTLMISRTPEVTCVVVDVSHEDPEVKFNWYVDGVEVHNAKTKPREEQYASTYRVVSVLTVLHQDWLNGKEYKCKVSNKALPAPIEKTISKAKGQPREPQVYTLPPSRCELTKNQVSLSCAVKGFYPSDIAVEWESNGQPENNYKTTPPVLDSDGSFFLVSKLTVDKSRWQQGNVFSCSVMHEALHNHYTQKSLSLSPDYKDDDDK EPKSSDKTHTCPPCPAPELLGGPSVFLFPPKPKDTLMISRTPEVTCVVVDVSHEDPEVKFNWYVDGVEVHNAKTKPREEQYNSTYRVVSVLTVLHQDWLNGKEYKCKVSNKALPAPIEKTISKAKGQPREPQVCTLPPSRDELTKNQVSLWCLVKGFYPSDIAVEWESNGQPENNYKTTPPVLDSDGSFFLYSKLTVDKSRWQQGNVFSCSVMHEALHNRYTQKSLSLSP light: DIVMTQSPLSLPVTPGEPASISCRSSQSLVHSNRNTYLHWYQQKPGQAPRLLIYKVSNRFSGVPDRFSGSGSGTDFTLKISRVEAEDVGVYYCGQGTQVPYTFGQGTKLEIKRTVAAPSVFIFPPSDEQLKSGTASVVCLLNNFYPREAKVQWKVDNALQSGNSQESVTEQDSKDSTYSLSSTLTLSKADYEKHKVYACEVTHQGLSSPVTKSFNRGEC	18
